Reference: patent US20200405820A1 (GENERAL HOSPITAL, published 2020)

Tests used:
[1] = target: T1, parathyroid hormone receptor 1 (PTHR1) in human osteoblast-derived SaOS-2 cells (human, UniProt Q03431 27-593); experiment: cell-based or functional assay
T1 sequence (looked up): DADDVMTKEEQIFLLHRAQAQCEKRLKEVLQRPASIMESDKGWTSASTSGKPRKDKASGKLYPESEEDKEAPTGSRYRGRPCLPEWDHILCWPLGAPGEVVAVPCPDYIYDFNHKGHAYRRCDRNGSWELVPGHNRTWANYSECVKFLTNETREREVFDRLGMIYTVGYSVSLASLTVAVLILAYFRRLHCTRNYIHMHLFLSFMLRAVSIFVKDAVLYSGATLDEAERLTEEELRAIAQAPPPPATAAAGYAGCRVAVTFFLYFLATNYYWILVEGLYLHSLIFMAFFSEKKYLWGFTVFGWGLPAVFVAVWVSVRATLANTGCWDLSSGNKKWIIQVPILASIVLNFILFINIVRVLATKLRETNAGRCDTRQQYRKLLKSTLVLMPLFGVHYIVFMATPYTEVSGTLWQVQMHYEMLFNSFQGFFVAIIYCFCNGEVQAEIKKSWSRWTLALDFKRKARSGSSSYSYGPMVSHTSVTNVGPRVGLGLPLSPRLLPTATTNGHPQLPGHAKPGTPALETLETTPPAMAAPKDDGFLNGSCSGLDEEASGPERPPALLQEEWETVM

[2] = target: T1, parathyroid hormone receptor 1 (PTHR1) …; experiment: cell-based or functional assay; remark: listed apart in the source

EC50, stimulation of cAMP formation in SaOS-2 cells [1]: ~0.6 nM
Max %, cAMP signaling in SaOS2/glosensor (SGS-72) cells [2]: 85%
pEC50, cAMP signaling potency in SaOS2/glosensor (SGS-72) cells [2]: 9.81 log molar concentration (pEC50)
B1: Palm-PTH(1-34) (Ref. No. 2027) (peptide)
peptide: SVSEIQLMHNLGKHLNSMERVEWLRKKLQDVHNFEYEXEYE
modifications: (PEG)2 linker (-C(O)-CH2(OCH2CH2)2CH2CH2-NH-) between the C-terminal Phe of PTH(1-34) and the N-terminal Glu of the tag; palmitoyl on the side-chain nitrogen of the Lys of the tag EYEK(palm)EYE; C-terminal amide (-NH2)
